Consider four substances from PMC9201872.

In experiment [1] the target is TIM-SNAP-HA (Timeless, S-TIM) (Drosophila melanogaster). The experiment can be described thus: pull-down.
Experiment [2] has the same target. As to the kind of experiment: pull-down. The source holds these as a separate data set.
The target is the same in experiment [3]. As to the kind of experiment: native gel or EMSA. On the technique in general: A gel shift assay detects complexes by their altered migration in electrophoresis.
Experiment [4] has the same target. The experiment can be described thus: pull-down. This is another data set of the same source.

By Kd is commonly meant the free concentration of one partner at which half of the binding sites on the other are occupied at equilibrium, for simple one-to-one binding. Broadly, the stoichiometry N is a count of units in the complex or per binding partner.

Like-named read-outs stand apart in the source and are kept apart here.

Chain of TIM-SNAP-HA (Timeless, S-TIM) (Drosophila melanogaster) (A4V040 whole entry): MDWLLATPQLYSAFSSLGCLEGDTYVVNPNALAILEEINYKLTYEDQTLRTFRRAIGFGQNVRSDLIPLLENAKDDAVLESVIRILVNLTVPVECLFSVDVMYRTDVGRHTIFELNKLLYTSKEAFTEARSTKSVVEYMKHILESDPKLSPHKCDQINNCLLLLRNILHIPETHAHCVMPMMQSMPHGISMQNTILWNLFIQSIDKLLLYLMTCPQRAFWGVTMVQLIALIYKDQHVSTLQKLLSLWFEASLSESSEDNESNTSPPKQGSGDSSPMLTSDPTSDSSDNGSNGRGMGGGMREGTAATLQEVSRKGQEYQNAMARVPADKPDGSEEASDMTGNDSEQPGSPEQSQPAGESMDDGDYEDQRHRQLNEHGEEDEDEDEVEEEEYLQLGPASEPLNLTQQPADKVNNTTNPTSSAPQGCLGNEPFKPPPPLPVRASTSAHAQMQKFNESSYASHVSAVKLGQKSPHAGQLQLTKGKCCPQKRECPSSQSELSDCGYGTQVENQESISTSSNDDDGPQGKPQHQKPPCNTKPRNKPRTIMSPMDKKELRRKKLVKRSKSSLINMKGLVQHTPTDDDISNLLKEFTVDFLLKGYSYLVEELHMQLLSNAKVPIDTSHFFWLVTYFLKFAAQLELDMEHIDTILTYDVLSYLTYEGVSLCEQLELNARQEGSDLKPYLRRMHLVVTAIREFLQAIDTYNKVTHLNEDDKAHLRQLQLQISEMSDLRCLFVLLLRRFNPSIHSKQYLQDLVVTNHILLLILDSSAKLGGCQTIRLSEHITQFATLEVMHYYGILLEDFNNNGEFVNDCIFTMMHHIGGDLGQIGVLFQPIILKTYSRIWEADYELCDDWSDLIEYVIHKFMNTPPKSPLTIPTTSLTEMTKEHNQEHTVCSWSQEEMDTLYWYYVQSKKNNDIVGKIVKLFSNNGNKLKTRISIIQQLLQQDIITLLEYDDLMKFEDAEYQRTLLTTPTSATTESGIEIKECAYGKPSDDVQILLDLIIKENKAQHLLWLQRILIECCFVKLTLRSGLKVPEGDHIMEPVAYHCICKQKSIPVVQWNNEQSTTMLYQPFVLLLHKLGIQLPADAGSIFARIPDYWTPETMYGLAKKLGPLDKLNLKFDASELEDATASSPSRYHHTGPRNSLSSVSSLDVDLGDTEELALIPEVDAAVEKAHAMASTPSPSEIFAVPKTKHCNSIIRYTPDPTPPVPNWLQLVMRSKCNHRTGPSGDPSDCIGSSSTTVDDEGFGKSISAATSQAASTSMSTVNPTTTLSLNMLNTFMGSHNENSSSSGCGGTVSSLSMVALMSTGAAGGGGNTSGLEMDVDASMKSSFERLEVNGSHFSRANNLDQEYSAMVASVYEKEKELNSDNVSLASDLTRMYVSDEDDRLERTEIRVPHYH

“CLIP-CRY H377A (from UniProt O77059 1-539) (natural protein)” returned an equilibrium dissociation constant (Kd) in experiment [1] of 18100 nM. As to “CLIP-CRY H377L (from UniProt O77059 1-539) (natural protein)”, the fold greater affinity than CRYΔ in experiment [2] and in experiment [1] was 10 fold throughout. For “CLIP-CRY W394F (from UniProt O77059 1-539) (natural protein)”, in experiment [1], the fold difference in KD against CRYΔ worked out at 35 fold. Turning to “CLIP-CRYΔ (residue 1-520) (from UniProt O77059 1-520) (domain or fragment)”, in experiment [3], the stoichiometry N was 1.08. Further, the dissociation constant Kd in experiment [4] is 1500 nM; in experiment [1], 1700 nM.
